How the values were obtained:
Assay in all cases: Western blot: E. coli lysate with the GST-tagged peptide, SDS-PAGE, PVDF membrane, POD-labelled antibody diluted 1000-fold, ECL
[1] = target: T1, GST-tagged peptide H7 (positions 56 to 327 of the human IgG4 heavy chain constant region) (human, UniProt P01861 56-325 = IgG part)
T1 construct: E. coli lysate on Western blot; not shown: GST tag (glutathione S-transferase) linked to the N terminal, expressed from vector pGEX-6P-1
Method: (§1) Based on the designed amino acid sequences, base sequences suitable for expressing protein in E. coli were designed according to the protocol of GenScript Corporation, thereby preparing vector pGEX-6P-1 (GE Healthcare Bio-Sciences Corp.) to which the respective base sequences are inserted. The prepared expression plasmid was introduced to E. coli BL 21 strain, thereby obtaining a transformant. The transformant was cultured by an ordinary method and a protein expression was induced by IPTG. After the cells were collected by centrifugation, the cells were dissolved with an ordinary lysis solution, and subjected to ultrasonication. 6 μL of an SDS sample buffer solution was added to 6 μL of the obtained lysate. The respective prepared samples were subjected to a heat treatment at 95° C. for 5 minutes. 10 μL of the E. coli disrupted sample was added to each well of 5 to 20% electrophoresis gel (Atto Corportation) to which an SDS electrophoresis buffer solution was added. Similarly, a molecular weight standard (Bio-Rad Laboratories, Inc.) was added to each well and electrophoresed. After completing the electrophoresis, the electrophoresis gel was transcribed to a PVDF membrane (Millipore Corporation) with a transfer buffer solution. The PVDF membrane was immersed in a membrane blocking buffer solution, and then shaking was carried out at room temperature for 30 minutes. Amino groups of MaI4-08, MaI4-09, and MaI4-05-produced antibodies were subjected to a POD labeling treatment with a POD labeling kit (Dojindo Molecular Technologies, Inc.). The obtained labeled antibodies each were diluted 1000-fold by PBST. After the PVDF membrane was cleaned with PBST, the antibody solutions prepared each were added to the PVDF membrane, and then the reaction was performed at room temperature for 1 hour. After the PVDF membrane was cleaned by PBST, a signal was detected with ECL Prime Western Blotting Detection Reagents (GE Healthcare) with Image Quant Las4000.

[2] = target: T2, GST-tagged peptide H12 (positions 99 to 220 of the human IgG4 heavy chain constant region) (human, UniProt P01861 99-220 = IgG part)
T2 construct: E. coli lysate on Western blot; not shown: GST tag (glutathione S-transferase) linked to the N terminal, expressed from vector pGEX-6P-1
T2 sequence (P01861 99-220): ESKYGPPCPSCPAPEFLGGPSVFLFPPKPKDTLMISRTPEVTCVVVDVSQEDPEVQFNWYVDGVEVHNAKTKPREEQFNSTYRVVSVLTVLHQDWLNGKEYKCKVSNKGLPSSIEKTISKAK
Method: as §1

[3] = target: T3, GST-tagged peptide H34 (H10 with proline for leucine at position 325) (human, UniProt P01861 221-324 = IgG part)
T3 construct: not shown: GST tag (glutathione S-transferase) linked to the N terminal, expressed from vector pGEX-6P-1
Method: as §1

[4] = target: T4, GST-tagged peptide H38 (H10 with R289K, E299Q and L325P) (human, UniProt P0DOX5 343-449 = IgG part)
T4 construct: not shown: N-terminal GST tag (from vector pGEX-6P-1) and any vector linker
T4 chain: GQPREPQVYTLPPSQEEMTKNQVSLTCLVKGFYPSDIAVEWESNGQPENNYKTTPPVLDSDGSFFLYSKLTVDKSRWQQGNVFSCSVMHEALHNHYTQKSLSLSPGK
Method: as §1

H-39 = target: T5, H-39
T5 construct: not shown: N-terminal GST tag and the vector-coded linker of pGEX-6P-1
T5 chain: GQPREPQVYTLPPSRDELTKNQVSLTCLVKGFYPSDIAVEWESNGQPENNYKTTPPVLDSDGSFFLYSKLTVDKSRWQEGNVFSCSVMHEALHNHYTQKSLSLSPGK
Method: as §1

[5] = target: T6, GST-tagged peptide H36 (positions 221 to 327 with the human IgG4 specific sequence replaced by the … (human, UniProt P0DOX5 343-449 = IgG part))
T6 construct: not shown: GST tag (glutathione S-transferase) linked to the N terminal, expressed from vector pGEX-6P-1
Method: as §1

[6] = target: T7, GST-tagged peptide H10 (positions 221 to 327 of the human IgG4 heavy chain constant region, CH3 region) (human, UniProt P01861 221-325 = IgG part)
T7 construct: E. coli lysate on Western blot; not shown: GST tag (glutathione S-transferase) linked to the N terminal, expressed from vector pGEX-6P-1
Method: as §1

[7] = target: T8, GST-tagged peptide H1 (full-length human IgG4 heavy chain constant region) (human, UniProt P01861 1-325 = IgG part)
T8 construct: Expressed in E. coli BL21; lysate, reduced and heat-denatured, on SDS-PAGE / Western blot; not shown: GST tag (glutathione S-transferase) linked to the N terminal, expressed from vector pGEX-6P-1
Method: as §1

[8] = target: T9, GST-tagged peptide H11 (positions 275 to 327 of the human IgG4 heavy chain constant region) (human, UniProt P01861 275-325 = IgG part)
T9 construct: E. coli lysate on Western blot; not shown: GST tag (glutathione S-transferase) linked to the N terminal, expressed from vector pGEX-6P-1
Method: as §1

[9] = target: T10, GST-tagged peptide H33 (H10 with glutamine for glutamic acid at position 299) (human, UniProt P01861 221-325 = IgG part)
T10 construct: not shown: GST tag (glutathione S-transferase) linked to the N terminal, expressed from vector pGEX-6P-1
T10 chain: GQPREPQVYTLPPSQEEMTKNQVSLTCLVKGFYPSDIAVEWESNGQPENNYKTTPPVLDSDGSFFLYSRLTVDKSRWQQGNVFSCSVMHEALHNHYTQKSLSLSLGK
Method: as §1

[10] = target: T11, GST-tagged peptide H9 (positions 166 to 327 of the human IgG4 heavy chain constant region) (human, UniProt P01861 166-325 = IgG part)
T11 construct: E. coli lysate on Western blot; not shown: GST tag (glutathione S-transferase) linked to the N terminal, expressed from vector pGEX-6P-1
T11 sequence (P01861 other isoform, or with tags, fused parts or gaps): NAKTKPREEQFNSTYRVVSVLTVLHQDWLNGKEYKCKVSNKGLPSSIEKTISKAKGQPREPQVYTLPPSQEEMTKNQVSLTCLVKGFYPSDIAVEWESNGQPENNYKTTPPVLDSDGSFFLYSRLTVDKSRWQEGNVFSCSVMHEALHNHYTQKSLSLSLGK
Method: as §1

B1: MaI4-08-produced antibody (antibody, IgG1, V domains shown)
VH: EVQLQQSGPELVKPGTSVKMSCKASGYIFTSYILHWVKQKPGQGLEWIAYINPYNDGTKYKEKFKGKGTLTSDKSSSTAYMELSSLTSEDSAVYYCARSGGGYGNYAWFAYWGPGTLVTVST
VL: DIQMTQSPSSLSASLGERVSLTCRASQDIGSSLNWLQQEPDGTIKRLIYATSSLDSGVPKRFSGSRSGSDYSLTISSLESEDFVDYYCLQYASYPPTFGAGTKLELK
notes: Purified on protein G from hybridoma culture supernatant; POD-labelled for the Western blots
B1: binds [1]; no binding [2]; binds [3]. B1: no binding [4]; binds (H-39); no binding [5]. B1: binds [6]; binds [7]; no binding [8]. B1: no binding [9]; binds [10].

From patent US20210140973A1 (NITTO BOSEKI, published 2021)
